{"source": "patent US20240358855A1", "key": {"[1]": {"molecular_target": "malondialdehyde modified LDL (UniProt P04114)", "assay": "plate binding ELISA on coated MDA-LDL, HEK293 supernatant; fold vs (-) control pCTM395 supernatant"}, "[2]": {"molecular_target": "malondialdehyde modified LDL (UniProt P04114)", "assay": "plate binding ELISA on coated MDA-LDL, purified protein; reference"}, "CRP": {"molecular_target": "T1, CRP (UniProt P02741)", "T1 sequence (looked up)": "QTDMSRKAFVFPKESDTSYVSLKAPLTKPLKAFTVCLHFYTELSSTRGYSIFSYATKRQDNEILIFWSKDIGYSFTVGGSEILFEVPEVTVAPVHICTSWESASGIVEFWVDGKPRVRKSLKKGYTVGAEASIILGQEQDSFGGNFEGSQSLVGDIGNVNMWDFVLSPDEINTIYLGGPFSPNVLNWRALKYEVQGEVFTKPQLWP", "assay": "plate binding ELISA on coated CRP, purified protein; reference"}, "C3d ligand": {"molecular_target": "C3d ligand (UniProt P01024)", "sequence (P01024 1002-1303 limits assumed)": "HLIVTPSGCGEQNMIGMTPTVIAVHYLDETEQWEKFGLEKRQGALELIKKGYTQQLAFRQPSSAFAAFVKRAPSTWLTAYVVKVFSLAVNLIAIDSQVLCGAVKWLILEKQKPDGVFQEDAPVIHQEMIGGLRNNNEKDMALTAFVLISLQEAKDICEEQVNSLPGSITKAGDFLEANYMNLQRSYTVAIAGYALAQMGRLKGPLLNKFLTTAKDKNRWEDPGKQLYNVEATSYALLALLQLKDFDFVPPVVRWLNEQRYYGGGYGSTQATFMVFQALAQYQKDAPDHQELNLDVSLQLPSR", "assay": "plate binding assay on C3d, purified protein; reference"}, "C3 convertase, C3bBb": {"molecular_target": "C3 convertase, C3bBb (UniProt P01024)", "sequence (P01024 23-1663 limits assumed, chain 1 of 2)": "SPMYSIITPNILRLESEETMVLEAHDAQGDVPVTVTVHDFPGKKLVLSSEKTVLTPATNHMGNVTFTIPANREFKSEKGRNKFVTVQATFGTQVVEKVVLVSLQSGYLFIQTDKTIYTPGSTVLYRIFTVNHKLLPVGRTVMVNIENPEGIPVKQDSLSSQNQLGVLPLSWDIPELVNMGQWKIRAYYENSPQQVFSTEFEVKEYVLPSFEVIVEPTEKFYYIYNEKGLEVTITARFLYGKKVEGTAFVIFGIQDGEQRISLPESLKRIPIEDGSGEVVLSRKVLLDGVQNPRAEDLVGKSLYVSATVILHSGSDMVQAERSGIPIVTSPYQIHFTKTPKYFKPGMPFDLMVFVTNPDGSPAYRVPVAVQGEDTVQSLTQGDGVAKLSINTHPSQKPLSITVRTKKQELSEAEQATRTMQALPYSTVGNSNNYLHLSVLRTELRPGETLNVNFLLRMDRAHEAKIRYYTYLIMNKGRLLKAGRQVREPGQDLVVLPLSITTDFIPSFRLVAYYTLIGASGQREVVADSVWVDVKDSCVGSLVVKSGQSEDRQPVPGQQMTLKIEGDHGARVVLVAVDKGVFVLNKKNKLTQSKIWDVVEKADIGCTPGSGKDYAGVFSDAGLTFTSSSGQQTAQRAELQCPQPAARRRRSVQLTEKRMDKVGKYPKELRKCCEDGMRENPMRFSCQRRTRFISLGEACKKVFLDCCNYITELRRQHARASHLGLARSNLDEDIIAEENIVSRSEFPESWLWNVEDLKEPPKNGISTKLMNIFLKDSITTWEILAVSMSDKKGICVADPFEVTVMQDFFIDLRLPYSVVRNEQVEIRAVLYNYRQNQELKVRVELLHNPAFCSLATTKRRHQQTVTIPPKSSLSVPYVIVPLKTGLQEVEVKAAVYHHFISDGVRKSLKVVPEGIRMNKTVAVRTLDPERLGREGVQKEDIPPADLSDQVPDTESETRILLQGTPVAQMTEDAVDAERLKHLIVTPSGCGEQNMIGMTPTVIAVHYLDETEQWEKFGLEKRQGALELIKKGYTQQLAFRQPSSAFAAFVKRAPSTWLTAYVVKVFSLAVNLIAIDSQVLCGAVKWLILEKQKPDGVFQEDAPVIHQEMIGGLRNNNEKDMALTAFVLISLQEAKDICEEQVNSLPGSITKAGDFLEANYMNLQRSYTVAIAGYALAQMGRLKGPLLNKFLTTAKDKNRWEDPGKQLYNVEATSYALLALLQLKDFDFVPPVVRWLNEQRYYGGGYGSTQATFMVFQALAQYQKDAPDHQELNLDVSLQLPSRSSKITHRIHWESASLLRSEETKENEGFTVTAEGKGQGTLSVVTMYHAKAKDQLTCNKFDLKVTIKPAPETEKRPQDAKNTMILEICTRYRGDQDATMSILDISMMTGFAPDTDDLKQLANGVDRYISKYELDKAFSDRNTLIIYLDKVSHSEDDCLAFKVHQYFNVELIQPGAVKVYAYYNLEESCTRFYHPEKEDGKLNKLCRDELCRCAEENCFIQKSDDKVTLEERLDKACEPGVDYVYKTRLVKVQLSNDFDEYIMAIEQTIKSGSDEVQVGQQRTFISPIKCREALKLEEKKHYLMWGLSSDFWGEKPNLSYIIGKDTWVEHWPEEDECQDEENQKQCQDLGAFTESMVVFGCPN", "sequence (P00751 260-764 limits assumed, chain 2 of 2, further chain)": "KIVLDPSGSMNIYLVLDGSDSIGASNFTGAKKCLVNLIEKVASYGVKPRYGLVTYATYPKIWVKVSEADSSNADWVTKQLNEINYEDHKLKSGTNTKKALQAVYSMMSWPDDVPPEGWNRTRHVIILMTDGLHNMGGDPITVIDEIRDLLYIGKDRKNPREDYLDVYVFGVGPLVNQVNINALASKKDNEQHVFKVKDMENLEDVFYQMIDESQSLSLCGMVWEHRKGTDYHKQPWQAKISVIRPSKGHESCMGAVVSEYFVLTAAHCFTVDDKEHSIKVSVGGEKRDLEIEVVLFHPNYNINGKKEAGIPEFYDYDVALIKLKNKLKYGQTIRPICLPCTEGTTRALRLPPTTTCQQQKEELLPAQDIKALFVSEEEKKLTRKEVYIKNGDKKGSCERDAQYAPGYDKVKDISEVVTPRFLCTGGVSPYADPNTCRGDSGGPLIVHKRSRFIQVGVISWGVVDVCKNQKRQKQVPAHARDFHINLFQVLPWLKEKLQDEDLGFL", "assay": "cell-based or functional assay"}, "C3b protein [3]": {"molecular_target": "C3b protein (UniProt P01024)", "sequence (P01024 23-667 limits assumed, chain 1 of 2)": "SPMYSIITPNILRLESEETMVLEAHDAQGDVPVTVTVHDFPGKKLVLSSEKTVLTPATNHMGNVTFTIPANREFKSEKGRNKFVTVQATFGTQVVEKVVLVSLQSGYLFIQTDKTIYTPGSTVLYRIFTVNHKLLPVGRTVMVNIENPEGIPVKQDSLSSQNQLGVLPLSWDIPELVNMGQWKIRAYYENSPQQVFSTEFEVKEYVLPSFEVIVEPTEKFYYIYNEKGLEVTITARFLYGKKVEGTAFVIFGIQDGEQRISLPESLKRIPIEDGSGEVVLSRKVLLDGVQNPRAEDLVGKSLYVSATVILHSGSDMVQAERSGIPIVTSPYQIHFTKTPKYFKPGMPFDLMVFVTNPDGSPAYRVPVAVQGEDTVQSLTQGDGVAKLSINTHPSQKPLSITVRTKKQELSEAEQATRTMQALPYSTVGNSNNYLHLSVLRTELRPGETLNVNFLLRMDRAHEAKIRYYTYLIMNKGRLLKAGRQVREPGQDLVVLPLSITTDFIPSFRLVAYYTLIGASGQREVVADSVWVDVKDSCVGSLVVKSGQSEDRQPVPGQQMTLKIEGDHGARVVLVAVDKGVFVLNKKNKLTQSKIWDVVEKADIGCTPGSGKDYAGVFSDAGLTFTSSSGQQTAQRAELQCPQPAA", "sequence (P01024 749-1663 limits assumed, chain 2 of 2)": "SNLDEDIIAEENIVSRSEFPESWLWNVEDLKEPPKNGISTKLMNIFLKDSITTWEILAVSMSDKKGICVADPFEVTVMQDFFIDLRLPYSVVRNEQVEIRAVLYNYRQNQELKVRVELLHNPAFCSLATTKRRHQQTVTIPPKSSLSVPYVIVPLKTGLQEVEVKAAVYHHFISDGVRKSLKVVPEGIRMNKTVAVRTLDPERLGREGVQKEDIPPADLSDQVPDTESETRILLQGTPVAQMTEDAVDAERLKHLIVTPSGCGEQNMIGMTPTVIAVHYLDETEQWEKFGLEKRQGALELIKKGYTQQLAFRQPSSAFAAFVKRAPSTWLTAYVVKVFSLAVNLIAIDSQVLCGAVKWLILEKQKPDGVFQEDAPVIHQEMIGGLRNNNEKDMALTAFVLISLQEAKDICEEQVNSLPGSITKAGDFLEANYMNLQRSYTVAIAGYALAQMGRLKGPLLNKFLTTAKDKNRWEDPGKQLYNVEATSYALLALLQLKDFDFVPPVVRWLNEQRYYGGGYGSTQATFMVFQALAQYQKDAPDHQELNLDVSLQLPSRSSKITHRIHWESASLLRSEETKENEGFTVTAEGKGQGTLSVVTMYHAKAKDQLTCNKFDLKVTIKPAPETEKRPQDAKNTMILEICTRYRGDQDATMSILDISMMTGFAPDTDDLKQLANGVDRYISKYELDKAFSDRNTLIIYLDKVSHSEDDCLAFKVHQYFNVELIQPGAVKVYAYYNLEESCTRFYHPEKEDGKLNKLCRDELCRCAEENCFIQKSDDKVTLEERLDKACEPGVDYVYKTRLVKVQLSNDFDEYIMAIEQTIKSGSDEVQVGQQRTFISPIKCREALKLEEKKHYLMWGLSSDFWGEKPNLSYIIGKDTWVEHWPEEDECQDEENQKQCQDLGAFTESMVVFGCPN", "assay": "plate binding ELISA on coated C3b, purified protein; reference"}, "C3b protein [4]": {"molecular_target": "C3b protein (UniProt P01024)", "assay": "plate binding ELISA on coated C3b, HEK293 supernatant 25 ng/mL; fold vs (-) control pCTM395 supernatant"}, "[5]": {"molecular_target": "malondialdehyde modified LDL (UniProt P04114)", "assay": "plate binding ELISA on coated MDA-LDL; fold vs (-) control pCTM395 supernatant"}}, "data": [{"substance": "CFHT.0 (pCTM297) (from UniProt P08603 19-445)", "values": [{"measurement": "Fold Activity at Highest Dose (Relative to Control)", "setting": "[1]", "value": 1.5, "unit": "fold"}]}, {"substance": "CFHT.0 purified recombinant protein (pCTM134) (from UniProt P08603 19-445)", "values": [{"measurement": "Fold Activity (Compared to CFHT-I62)", "setting": "[2]", "value": 1, "unit": "fold"}, {"measurement": "Fold Activity (Compared to CFHT-I62)", "setting": "CRP", "value": 1, "unit": "fold"}, {"measurement": "Fold Activity (Compared to CFHT-I62)", "setting": "C3d ligand", "value": 1, "unit": "fold"}, {"measurement": "IC50, decay acceleration activity (DAA) assay", "setting": "C3 convertase, C3bBb", "value": 1.95, "unit": "nM"}, {"measurement": "Fold Activity (Compared to CFHT-I62)", "setting": "C3b protein [3]", "value": 1, "unit": "fold"}]}, {"substance": "His-CFHT.0 (pCTM447) (from UniProt P08603 19-445)", "values": [{"measurement": "Fold Activity at Highest Dose (Relative to Control)", "setting": "C3b protein [4]", "value": 1.5, "unit": "fold"}, {"measurement": "Fold Activity at Highest Dose (Relative to Control)", "setting": "[1]", "value": 1.4, "unit": "fold"}]}, {"substance": "rCFHT-I62 Protein (from UniProt P08603 19-445)", "values": [{"measurement": "Fold Activity at Highest Dose (Relative to Control)", "setting": "[5]", "value": 52, "unit": "fold"}]}]}
